These results are taken from patent publication US20200207850A1 (MacroGenics, published 2020).

Assay [1] addresses ROR1 on JIMT-1 and A549 target cells (UniProt Q01973 30-937, limits assumed). The assay is described as follows: cell-based or functional assay.
The target in assay [2] is T1, B7-H3 on A498 and JIMT-1 target cells (UniProt Q5ZPR3 29-534, limits assumed).
T1 sequence (looked up): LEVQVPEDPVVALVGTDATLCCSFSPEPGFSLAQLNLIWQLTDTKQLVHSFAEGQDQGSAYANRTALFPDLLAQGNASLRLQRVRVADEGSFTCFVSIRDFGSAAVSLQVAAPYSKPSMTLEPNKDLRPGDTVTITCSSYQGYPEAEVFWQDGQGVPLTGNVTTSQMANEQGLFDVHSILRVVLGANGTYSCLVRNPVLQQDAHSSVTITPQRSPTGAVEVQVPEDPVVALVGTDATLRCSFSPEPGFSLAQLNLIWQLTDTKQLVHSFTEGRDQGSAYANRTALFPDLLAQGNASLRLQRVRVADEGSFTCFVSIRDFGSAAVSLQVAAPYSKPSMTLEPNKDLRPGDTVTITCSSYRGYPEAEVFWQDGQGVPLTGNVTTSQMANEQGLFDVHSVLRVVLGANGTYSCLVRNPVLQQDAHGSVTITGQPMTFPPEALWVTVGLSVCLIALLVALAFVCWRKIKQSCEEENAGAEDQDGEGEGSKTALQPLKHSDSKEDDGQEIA
Kind of assay: cell-based or functional assay.

Assay [3] concerns the target T2, CD8 on human T cells (PBMC) (human, UniProt P01732 22-235).
T2 construct: whole, on cells; The CD8+ (CD5+ CD4-) cells also carry CD3; also called CD5+ CD4- gated PBMC; CD8+ T cells
Kind of assay: flow cytometry on human PBMC gated CD5+/CD4- (cells carry CD8 and CD3), detection with anti-human Fc-PE.

T2 sequence (P01732 22-235): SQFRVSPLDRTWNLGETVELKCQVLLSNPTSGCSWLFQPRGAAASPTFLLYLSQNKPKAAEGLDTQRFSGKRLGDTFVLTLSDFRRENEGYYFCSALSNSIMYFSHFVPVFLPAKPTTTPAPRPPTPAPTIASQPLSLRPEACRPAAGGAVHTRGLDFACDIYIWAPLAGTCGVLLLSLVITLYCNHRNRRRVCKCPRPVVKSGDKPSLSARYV

B1: ROR1 mAb 1/CD3 mAb 2/CD8 mAb 2 Tri-Specific Binding Molecule (other)
chain 1: QLVLTQSPSASASLGSSVKLTCTLSSGHKTDTIDWYQQQPGKAPRYLMKLEGSGSYNKGSGVPDRFGSGSSSGADRYLTISSLQSEDEADYYCGTDYPGNYLFGGGTQLTVLGGGGSGGGGEVQLVESGGGLVQPGGSLRLSCAASGFTFSTYAMNWVRQAPGKGLEWVGRIRSKYNNYATYYADSVKGRFTISRDDSKNSLYLQMNSLKTEDTAVYYCVRHGNFGNSYVSWFAYWGQGTLVTVSSGGCGGGEVAALEKEVAALEKEVAALEKEVAALEKGGGDKTHTCPPCPAPEAAGGPSVFLFPPKPKDTLMISRTPEVTCVVVDVSHEDPEVKFNWYVDGVEVHNAKTKPREEQYNSTYRVVSVLTVLHQDWLNGKEYKCKVSNKALPAPIEKTISKAKGQPREPQVYTLPPSREEMTKNQVSLWCLVKGFYPSDIAVEWESNGQPENNYKTTPPVLDSDGSFFLYSKLTVDKSRWQQGNVFSCSVMHEALHNHYTQKSLSLSPGK
chain 2: QAVVTQEPSLTVSPGGTVTLTCRSSTGAVTTSNYANWVQQKPGQAPRGLIGGTNKRAPWTPARFSGSLLGGKAALTITGAQAEDEADYYCALWYSNLWVFGGGTKLTVLGGGGSGGGGQEQLVESGGGLVQPGGSLRLSCAASGFTFSDYYMSWVRQAPGKGLEWVATIYPSSGKTYYADSVKGRFTISSDNAKNSLYLQMNSLRAEDTAVYYCARDSYADDAALFDIWGQGTTVTVSSGGCGGGKVAALKEKVAALKEKVAALKEKVAALKE
heavy: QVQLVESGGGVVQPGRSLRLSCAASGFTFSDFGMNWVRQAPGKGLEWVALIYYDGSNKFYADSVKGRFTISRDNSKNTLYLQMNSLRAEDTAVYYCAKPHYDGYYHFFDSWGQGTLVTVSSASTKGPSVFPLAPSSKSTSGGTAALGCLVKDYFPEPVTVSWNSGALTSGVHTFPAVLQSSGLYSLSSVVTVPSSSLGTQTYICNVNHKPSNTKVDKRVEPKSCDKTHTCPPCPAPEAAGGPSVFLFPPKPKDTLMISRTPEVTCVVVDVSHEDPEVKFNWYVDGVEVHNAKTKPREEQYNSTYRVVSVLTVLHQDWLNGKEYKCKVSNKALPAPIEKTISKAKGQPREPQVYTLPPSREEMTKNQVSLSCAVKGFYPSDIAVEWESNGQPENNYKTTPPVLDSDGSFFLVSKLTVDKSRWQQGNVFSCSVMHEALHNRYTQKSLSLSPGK
light: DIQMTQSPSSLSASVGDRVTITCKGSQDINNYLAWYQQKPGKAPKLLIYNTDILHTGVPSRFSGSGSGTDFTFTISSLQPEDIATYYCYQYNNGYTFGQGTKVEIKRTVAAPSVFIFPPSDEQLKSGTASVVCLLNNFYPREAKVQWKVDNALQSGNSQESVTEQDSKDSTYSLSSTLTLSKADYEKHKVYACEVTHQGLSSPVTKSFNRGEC
Take B1: in assay [1], the “EC50 (nM) of killing, CD4+ effector cells, JIMT1-luc target cells, E:T 5:1” value worked out at 0.277 nM; the “EC50 (nM) of killing, CD8+ effector cells, JIMT1-luc target cells, E:T 5:1” value was found to be 0.0021 nM; the “EC50 (nM) of killing, PanT effector cells, JIMT1-luc target cells, E:T 5:1” value came out at 0.0057 nM.

B2: B7-H3 mAb 1/CD8 mAb 1/CD3 mAb 2 Tri-Specific Binding Molecule (other)
chain 1: DVQINQSPSFLAASPGETITINCRTSRSISQYLAWYQEKPGKTNKLLIYSGSTLQSGIPSRFSGSGSGTDFTLTISGLEPEDFAMYYCQQHNENPLTFGAGTKLELRGGGSGGGGQVQLVQSGAEVKKPGASVKVSCKASGYTFTSYWMQWVRQAPGQGLEWMGTIYPGDGDTRYTQKFKGRVTITADKSTSTAYMELSSLRSEDTAVYYCARRGIPRLWYFDVWGQGTTVTVSSGGCGGGEVAALEKEVAALEKEVAALEKEVAALEKGGGDKTHTCPPCPAPEAAGGPSVFLFPPKPKDTLMISRTPEVTCVVVDVSHEDPEVKFNWYVDGVEVHNAKTKPREEQYNSTYRVVSVLTVLHQDWLNGKEYKCKVSNKALPAPIEKTISKAKGQPREPQVYTLPPSREEMTKNQVSLWCLVKGFYPSDIAVEWESNGQPENNYKTTPPVLDSDGSFFLYSKLTVDKSRWQQGNVFSCSVMHEALHNHYTQKSLSLSPGK
chain 2: DIQMTQSPSSLSASVGDRVTITCRASQDISNYLNWYQQKPGKAPKLLIYYTSRLHSGVPSRFSGSGSGTDFTLTISSLQPEDIATYYCQQGNTLPPTFGGGTKLEIKGGGSGGGGEVQLQQSGAELVKPGASVKLSCTASGFNIKDTYIHFVRQRPEQGLEWIGRIDPANDNTLYASKFQGKATITADTSSNTAYMHLCSLTSGDTAVYYCGRGYGYYVFDHWGQGTTLTVSSGGCGGGKVAALKEKVAALKEKVAALKEKVAALKE
heavy: EVQLVESGGGLVQPGGSLRLSCAASGFTFSTYAMNWVRQAPGKGLEWVGRIRSKYNNYATYYADSVKDRFTISRDDSKNSLYLQMNSLKTEDTAVYYCVRHGNFGNSYVSWFAYWGQGTLVTVSSASTKGPSVFPLAPSSKSTSGGTAALGCLVKDYFPEPVTVSWNSGALTSGVHTFPAVLQSSGLYSLSSVVTVPSSSLGTQTYICNVNHKPSNTKVDKRVEPKSCDKTHTCPPCPAPEAAGGPSVFLFPPKPKDTLMISRTPEVTCVVVDVSHEDPEVKFNWYVDGVEVHNAKTKPREEQYNSTYRVVSVLTVLHQDWLNGKEYKCKVSNKALPAPIEKTISKAKGQPREPQVYTLPPSREEMTKNQVSLSCAVKGFYPSDIAVEWESNGQPENNYKTTPPVLDSDGSFFLVSKLTVDKSRWQQGNVFSCSVMHEALHNRYTQKSLSLSPGK
light: QAVVTQEPSLTVSPGGTVTLTCRSSTGAVTTSNYANWVQQKPGQAPRGLIGGTNKRAPWTPARFSGSLLGGKAALTITGAQAEDEADYYCALWYSNLWVFGGGTKLTVLGRTVAAPSVFIFPPSDEQLKSGTASVVCLLNNFYPREAKVQWKVDNALQSGNSQESVTEQDSKDSTYSLSSTLTLSKADYEKHKVYACEVTHQGLSSPVTKSFNRGEC
In the case of B2, in assay [2], the “EC50 (nM) of killing, CD4+ effector cells, JIMT1-luc target cells, E:T 5:1” value was found to be 1.1 nM; the “EC50 (nM) of killing, CD8+ effector cells, JIMT1-luc target cells, E:T 5:1” value is 0.412 nM; the “EC50 (nM) of killing, PanT effector cells, JIMT1-luc target cells, E:T 5:1” value is 0.535 nM.

B3: 5T4 mAb 1/CD3 mAb 2 Low/CD8 mAb 1 Tri-Specific Binding Molecule (other)
chain 1: DIQMTQSPSSLSASVGDRVTITCRASQGISNYLAWFQQKPGKAPKSLIYRANRLQSGVPSRFSGSGSGTDFTLTISSLQPEDVATYYCLQYDDFPWTFGQGTKLEIKGGGSGGGGEVQLVESGGGLVQPGGSLRLSCAASGFTFSTYAMNWVRQAPGKGLEWVGRIRSKYNNYATYYADSVKGRFTISRDDSKNSLYLQMNSLKTEDTAVYYCVRHGNFGNSYVTWFAYWGQGTLVTVSSASTKGEVAACEKEVAALEKEVAALEKEVAALEKGGGDKTHTCPPCPAPEAAGGPSVFLFPPKPKDTLMISRTPEVTCVVVDVSHEDPEVKFNWYVDGVEVHNAKTKPREEQYNSTYRVVSVLTVLHQDWLNGKEYKCKVSNKALPAPIEKTISKAKGQPREPQVYTLPPSREEMTKNQVSLWCLVKGFYPSDIAVEWESNGQPENNYKTTPPVLDSDGSFFLYSKLTVDKSRWQQGNVFSCSVMHEALHNHYTQKSLSLSPGK
chain 2: QAVVTQEPSLTVSPGGTVTLTCRSSTGAVTTSNYANWVQQKPGQAPRGLIGGTNKRAPWTPARFSGSLLGGKAALTITGAQAEDEADYYCALWYSNLWVFGGGTKLTVLGGGGSGGGGQVQLVQSGAEVKKPGASVKVSCKASGYTFTSFWMHWVRQAPGQGLEWMGRIDPNRGGTEYNEKAKSRVTMTADKSTSTAYMELSSLRSEDTAVYYCAGGNPYYPMDYWGQGTTVTVSSASTKGKVAACKEKVAALKEKVAALKEKVAALKE
heavy: EVQLQQSGAELVKPGASVKLSCTASGFNIKDTYIHFVRQRPEQGLEWIGRIDPANDNTLYASKFQGKATITADTSSNTAYMHLCSLTSGDTAVYYCGRGYGYYVFDHWGQGTTLTVSSASTKGPSVFPLAPSSKSTSGGTAALGCLVKDYFPEPVTVSWNSGALTSGVHTFPAVLQSSGLYSLSSVVTVPSSSLGTQTYICNVNHKPSNTKVDKRVEPKSCDKTHTCPPCPAPEAAGGPSVFLFPPKPKDTLMISRTPEVTCVVVDVSHEDPEVKFNWYVDGVEVHNAKTKPREEQYNSTYRVVSVLTVLHQDWLNGKEYKCKVSNKALPAPIEKTISKAKGQPREPQVYTLPPSREEMTKNQVSLSCAVKGFYPSDIAVEWESNGQPENNYKTTPPVLDSDGSFFLVSKLTVDKSRWQQGNVFSCSVMHEALHNRYTQKSLSLSPGK
light: DVQINQSPSFLAASPGETITINCRTSRSISQYLAWYQEKPGKTNKLLIYSGSTLQSGIPSRFSGSGSGTDFTLTISGLEPEDFAMYYCQQHNENPLTFGAGTKLELRRTVAAPSVFIFPPSDEQLKSGTASVVCLLNNFYPREAKVQWKVDNALQSGNSQESVTEQDSKDSTYSLSSTLTLSKADYEKHKVYACEVTHQGLSSPVTKSFNRGEC
As for B3, in assay [3], the “EC50 (read off the curve)” value was roughly 800 pM.
